These results are taken from the supplement of paper PMC10567573.

± gives the standard deviation.

This data set is described as follows: protein stability index of a GFP-peptide fusion (GPS, HEK-293T) (PSI 1-6); higher = more stable. The settings on record: c terminus: a fixed tail appended.
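Also: 24-mer peptide tiles fused after GFP, lentivirally expressed, FACS-sorted into six equal bins by GFP/DsRed ratio, decoded by Illumina sequencing, PSI is the read-weighted mean bin number.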

With AAAEVGGGVGGSSRARSASSPRGM [ANKRD17], the protein stability index amounted to 4.82 ± 0.34 (treatment: DMSO) and 5 ± 0.24 (treatment: MLN4924 1 uM, 8 h).

With AAASAKDIYYNNMEEVCGGEKPYL [ATL3], the protein stability index came out at 4.21 ± 0.25 (treatment: DMSO) and 4.01 ± 0.069 (treatment: MLN4924 1 uM, 8 h).

For the sequence AAGELESMGFSARYNFTPDPDFKD [NETO1], the protein stability index by setting is: (treatment: DMSO) 4.71 ± 0.2; (treatment: MLN4924 1 uM, 8 h) 4.61 ± 0.18.

Regarding AAHRLARRLYHLEGFQRCDVARQL [PSD2], the protein stability index was found to be 2.21 ± 0.43 (treatment: DMSO) and 2.46 ± 0.46 (treatment: MLN4924 1 uM, 8 h).

Regarding AANKAVKCAEVIIPLLSSVNVSDR [ANKRD44], the protein stability index runs as follows: (treatment: DMSO) 2.9 ± 0.27; (treatment: MLN4924 1 uM, 8 h) 2.98 ± 0.23.

Regarding AANKGEEKKDDENIPMETEETHLE [SMARCE1], the protein stability index by setting is: (treatment: DMSO) 5.64 ± 0.33; (treatment: MLN4924 1 uM, 8 h) 5.34 ± 0.42.

Turning to AAPGALGSLHAGGARLVAACSAWL [AUH], the protein stability index is, setting by setting: (treatment: DMSO) 2.65 ± 0.047; (treatment: MLN4924 1 uM, 8 h) 2.39 ± 0.34.

In the case of AAQNCRKRKLDTILNLERDVEDLQ [NFE2L1], the protein stability index is 4.09 ± 0.44 (treatment: DMSO) and 4.62 ± 0.27 (treatment: MLN4924 1 uM, 8 h).

On to AASPELSALEEAFRRFAVHGDARA [TPPP], for which the protein stability index runs as follows: (treatment: DMSO) 3.73 ± 0.12; (treatment: MLN4924 1 uM, 8 h) 3.74 ± 0.26.

Turning to AASVRMRGEAEAFAIGARARAEAE [FLOT1], the protein stability index runs as follows: (treatment: DMSO) 5.32 ± 0.17; (treatment: MLN4924 1 uM, 8 h) 4.96 ± 0.23.

As for ACGGHVELAALLIERGASLEEVND [ANKRD17], the protein stability index runs as follows: (treatment: DMSO) 3.91 ± 0.29; (treatment: MLN4924 1 uM, 8 h) 3.73 ± 0.22.

As for ADPLRVSSRDKLTEMAASSQGNFE [FUNDC2], the protein stability index amounted to 4.96 ± 0.2 (treatment: DMSO) and 5.18 ± 0.26 (treatment: MLN4924 1 uM, 8 h).

For ADSVITVGRGEVVTVRVPTHEEGS [ACBD3], the protein stability index is 4.88 ± 0.2 (treatment: DMSO) and 4.88 ± 0.16 (treatment: MLN4924 1 uM, 8 h).

ADTRRLNSKPQDLTDAYGPPSNFL [SNX12]: the protein stability index came out at 3.97 ± 0.22 (treatment: DMSO) and 3.93 ± 0.068 (treatment: MLN4924 1 uM, 8 h).

In the case of AEHEITELTATFTKFDRDGNRILD [PKD2L1], the protein stability index reads like this: (treatment: DMSO) 4.76 ± 0.24; (treatment: MLN4924 1 uM, 8 h) 4.95 ± 0.19.

Turning to AETQPQNPPAQPAPNAWQVIKGVL [CLPTM1], the protein stability index came out at 3.55 ± 0.15 (treatment: DMSO) and 3.78 ± 0.25 (treatment: MLN4924 1 uM, 8 h).

As for AEVNAVDNEGNSALHIIVQYNRPI [FEM1B], the protein stability index runs as follows: (treatment: DMSO) 2.48 ± 0.25; (treatment: MLN4924 1 uM, 8 h) 2.48 ± 0.23.

For AEVRHEIQDGTIHLYIYSIHSIPK [KMT2E], the protein stability index runs as follows: (treatment: DMSO) 2.1 ± 0.76; (treatment: MLN4924 1 uM, 8 h) 1.51 ± 0.14.

For the sequence AFERQQVENRVVEEAKGLLDKVKD [ZBED1], the protein stability index is, setting by setting: (treatment: DMSO) 4.97 ± 0.38; (treatment: MLN4924 1 uM, 8 h) 5.61 ± 0.19.

As for AFHGAPSHLPTRSPSFPEAPDSGR [TBX6], the protein stability index is, setting by setting: (treatment: DMSO) 4.32 ± 0.26; (treatment: MLN4924 1 uM, 8 h) 4.37 ± 0.38.

In the case of AGGAGGGVTEEQEGFADGFVKALD [JUNB], the protein stability index was 5.32 ± 0.17 (treatment: DMSO) and 5.35 ± 0.085 (treatment: MLN4924 1 uM, 8 h).

For AGISPLQQMVASGTGAVVTSLFMT [SLC25A39], the protein stability index was 2.02 ± 0.57 (treatment: DMSO) and 2.17 ± 0.5 (treatment: MLN4924 1 uM, 8 h).

As for AHLPKAQLSGYAVEATRNQSQLQR [FBF1], the protein stability index is, setting by setting: (treatment: DMSO) 4.21 ± 0.044; (treatment: MLN4924 1 uM, 8 h) 4.08 ± 0.2.

Regarding AHSNAISNCCFTFSGHFLCTSSWD [WDR88], the protein stability index is, setting by setting: (treatment: DMSO) 2.48 ± 0.49; (treatment: MLN4924 1 uM, 8 h) 2.3 ± 0.57.

Consider AIHYCASTSEESWTDSEVDSSCSG [SPDEF], for which the protein stability index runs as follows: (treatment: DMSO) 5.28 ± 0.2; (treatment: MLN4924 1 uM, 8 h) 5.18 ± 0.37.

In the case of AIPIEIKSIDDTSNFDDFPESDIL [STK38L], the protein stability index is 4.67 ± 0.17 (treatment: DMSO) and 4.84 ± 0.11 (treatment: MLN4924 1 uM, 8 h).

For the sequence AKGLAESLELPKAIQDQLPRLQQL [FANCE], the protein stability index was found to be 3.95 ± 0.12 (treatment: DMSO) and 4.15 ± 0.3 (treatment: MLN4924 1 uM, 8 h).

For AKKEDKVPVKKQKTRTVFSSTQLC [NANOGP8], the protein stability index is, setting by setting: (treatment: DMSO) 4.2 ± 0.1; (treatment: MLN4924 1 uM, 8 h) 4.19 ± 0.12.

Consider AKKGRRNQSVEPKKEEPEPETEAV [ZMYND11], for which the protein stability index reads like this: (treatment: DMSO) 5.53 ± 0.28; (treatment: MLN4924 1 uM, 8 h) 5.66 ± 0.21.

As for ALALQARGCSVKIWTAHYDPGHCF [ALG2], the protein stability index was found to be 2.25 ± 0.41 (treatment: DMSO) and 2.23 ± 0.26 (treatment: MLN4924 1 uM, 8 h).

Consider ALCELLEKETQIIASIGRHRYIAY [IQUB], for which the protein stability index stood at 2.25 ± 0.3 (treatment: DMSO) and 2.16 ± 0.24 (treatment: MLN4924 1 uM, 8 h).

ALEGSALANGRALSAGSPPVPPGW [DLX1] returned a protein stability index (treatment: DMSO) of 3.59 ± 0.15 and a protein stability index (treatment: MLN4924 1 uM, 8 h) of 3.86 ± 0.17.

ALLDQIRQGIQLNKTPGAPESSAL [WAS]: the protein stability index is 3.3 ± 0.16 (treatment: DMSO) and 3.15 ± 0.53 (treatment: MLN4924 1 uM, 8 h).

ALLIVDSATALYRTDYSGRGELSA [RAD51]: the protein stability index worked out at 2.17 ± 0.33 (treatment: DMSO) and 2.27 ± 0.42 (treatment: MLN4924 1 uM, 8 h).

Regarding ALSSPRSRKNATQPPNAEEESGSS [INTS3], the protein stability index by setting is: (treatment: DMSO) 5.24 ± 0.31; (treatment: MLN4924 1 uM, 8 h) 5.38 ± 0.24.

Take AMELRHQGGEYLPKPEPPQLVLAY [FEM1A]: the protein stability index is, setting by setting: (treatment: DMSO) 2.32 ± 0.33; (treatment: MLN4924 1 uM, 8 h) 2.38 ± 0.28.
